Experimental data taken from patent publication US20210032308A1 (published 2021).

Assays:
ML3d1-Pfe = assay: SPR
ML1d1-Pfe = assay: SPR

Kd (ML3d1-Pfe): 52 nM
Kd (ML1d1-Pfe): 82 nM
B1: CD2 (receptor)
chain: KEITNALETWGALGQDINLDIPSFQMSDDIDDIKWEKTSDKKKIAQFRKEKETFKEKDTYKLFKNGTLKIKHLKTDDQDIYKVSIYDTKGKNVLEKIFDLKIQERVSKPKISWTCINTTLTCEVMNGTDPELNLYQDGKHLKLSQRVITHKWTTSLSAKFKCTAGNKVSKESSVEPVSCPEKGLD
modifications: biotinylated (site not stated)
